Laboratory results published in the DeepSol protein solubility set.

Experiment: soluble on expression in E. coli; label from the status in PepcDB or PDB records

Question: With “MHHHHHHSSGVDLGTENLYFQSNAMEPFKHPIAILGAGSWGTALALVLARKGQKVRLWSYESDHVDEMQAEGVNNRYLPNYPFPETLKAYCDLKASLEGVTDILIVVPSFAFHEVITRMKPLIDAKTRIAWGTKGLAKGSRLLHEVVATELGQVPMAVISGPSLATEVAANLPTAVSLASNNSQFSKDLIERLHGQRFRVYKNDDMIGVELCGSVKNILAIATGISDGLKLGSNARAALITRGLTEMGRLVSVFGGKQETLTGLAGLGDLVLTCTDNQSRNRRFGLALGEGVDKKEAQQAIGQAIEGLYNTDQVHALAQKHAIEMPLTFQVHRILHEDLDPQQAVQELLERSPKAE” as the sequence, how does the “soluble on expression in E. coli” value read?
Answer: soluble

Question: For “MHHHHHHSSGVDLGTENLYFQSNAMLLPTDLSENSFKVLEYLGDFKKVGVEEIGVLFVINLTKLSTVSGGIDIDHYIDEMSEKAEEVLPEVAQKIEAAGIKAEVIKPFPAGDPVVEIIKASENYSFIAMGSRGASKFKKILLGSVSEGVLHDSKVPVYIFKHDMVVNSLFDRVLVAYDFSKWADRALEYAKFVVKKTGGELHIIHVSEDGDKTADLRVMEEVIGAEGIEVHVHIESGTPHKAILAKREEINATTIFMGSRGAGSVMTMILGSTSESVIRRSPVPVFVCKRGDDE”, which “soluble on expression in E. coli” value is on record?
Answer: soluble

Question: Which “soluble on expression in E. coli” value does the source give for “MHKEIAKELLLLAGGKNNIISISHCTTRLRFDVKDETKIDIHAIENLQGVQGTFFRYGLFQIIFGAGVVNKIYKEVVHVWETAPSEEPVHQKKASRKLNPAAAFAKTLSDI” here?
Answer: not soluble

Question: Which “soluble on expression in E. coli” value does the source give for “MHQVVCATTNPAKIQAILQAFHEIFGEGSCHIASVAVESGVPEQPFGSEETRAGARNRVANARRLLPEADFWVAIEAGIDGDSTFSWVVIENASQRGEARSATLPLPAVILEKVREGEALGPVMSRYTGIDEIGRKEGAIGVFTAGKLTRASVYHQAVILALSPFHNAVY” here?
Answer: soluble

Question: With “MHRRRSGPTSQPLARGERGLPANRSFASLIAWLTSVRLLCRSPPFCCFYSLSTYTTVMYTDGQYDYDVAVVGGGPAGLTSALYTSRLGMDTIVINRGGGRAAMMTDTHNVIGVTEDVSGNEFLETAREQVQDYGGTYERGFVESVDPLADEEDGFTVTTSDGELAVKRVVLATGFADERPDPPLPRTGKGLHWCLHCDAFMFVGEPVFVMGTGEAAAHVAMIMLNYTDDVDILTRGETPEWSDETQTMLDNHPVEIVETELSGKQTDDDGWLSAYEFEDGSVREYKGGFPMLGSDYHAELADELGLDRNDDGTVAVDDHGETSVSGVYAVGDLTPGHNQIPIAMGEGADAGIAIHKDLRKYPRSVDDIESEGAVEDVEVPAVSEELFATALTHEGHAAGPRSEEAPEVRADDDLEHHHHHH” as the sequence, how does the “soluble on expression in E. coli” value read?
Answer: not soluble

Question: For “MHSEVTPIHHYKKYWAECFGTAPFLPTSREEMDQLGWDSCDVIIVTGDAYVDHPSFGMAIIGRLLEAQGFRVGIIAQPEWQTKDAFMTLGKPNLFFGVTAGNMDSMINRYTADKKIRHDDAYTPNNKGGMRPDRCSLVYSQRCREAYKDVPIVLGGIEASLRRVAHYDYWSDKVRRSILLDAKADILLFGNAERALVEVAHRLANGESINKMVDIRGTAVNLAQVPEHFKIIDSTRIDQPNKPFVPSNPYEVETQCATKGDEKEEAQPITIRPSRHDAKTTAVRLPSFEKLVNDRILYAHASRVLHLETNPYSGRALVQRHGDRELWVNQAPIPLTTEEMDFVFGLYYARVPHPKYGDAKIPAYDMIKTS”, which “soluble on expression in E. coli” value is on record?
Answer: soluble

Question: For “MHVWPVQDAKARFSEFLDACITEGPQIVSRRGAEEAVLVPIGEWRRLQAAARPSLKQLLLSDSARTEMLVPERGKARRRQVEPLR”, which “soluble on expression in E. coli” value is on record?
Answer: soluble

Question: For “MHWQTHTVFNQPIPLNNSNLYLSDGALCEAVTREGAGWDSDFLASIGQQLGTAESLELGRLANVNPPELLRYDAQGRRLDDVRFHPAWHLLMQALCTNRVHNLAWEEDARSGAFVARAARFMLHAQVEAGSLCPITMTFAATPLLLQMLPAPFQDWTTPLLSDRYDSHLLPGGQKRGLLIGMGMTEKQGGSDVMSNTTRAERLEDGSYRLVGHKWFFSVPQSDAHLVLAQTAGGLSCFFVPRFLPDGQRNAIRLERLKDKLGNRSNASCEVEFQDAIGWLLGLEGEGIRLILKMGGMTRFDCALGSHAMMRRAFSLAIYHAHQRHVFGNPLIQQPLMRHVLSRMALQLEGQTALLFRLARAWDRRADAKEALWARLFTPAAKFVICKRGMPFVAEAMEVLGGIGYCEESELPRLYREMPVNSIWEGSGNIMCLDVLRVLNKQAGVYDLLSEAFVEVKGQDRYFDRAVRRLQQQLRKPAEELGREITHQLFLLGCGAQMLKYASPPMAQAWCQVMLDTRGGVRLSEQIQNDLLLRATGGVCV”, which “soluble on expression in E. coli” value is on record?
Answer: soluble

Question: For “MHYFSEKPTTKSDVKIVEDILRGKKLKFKTDSGVFSYGKVDKGTKILVENVVVDKDDDILDLGCGYGVIGIALADEVKSTTMADINRRAIKLAKENIKLNNLDNYDIRVVHSDLYENVKDRKYNKIITNPPIRAGKEVLHRIIEEGKELLKDNGEIWVVIQTKQGAKSLAKYMKDVFGNVETVTIKGGYRVLKSKKL”, which “soluble on expression in E. coli” value is on record?
Answer: soluble

Question: With “MIAGATAPSSQHEILIASNLIKKPSTSQNKTPTAQSSSGNNGAADGAPQGYHHHHHHHRHLWWPRTTDHQYWCVLRKNQFAYYKTRDEREAISVIPRFDILNFKISELDGILTVYTPSKDLIFKFPRGQNEKVGMELMHNWKIALEKFLSSPSGNESVTTGSDYDEEEDDDDLIVVDEKAGPSSSKHSCSLTMDEQLSREDKEFYRMFDPRNAEHQVCSGILYTKVKKKKLFNRAKWQKFNVELTNTSFNLYSFKTGKLKKSIKLDKIIDCIELDNNSKMKNDDTNFALITFDERLSFKAANDQDMVDWIINFKSGILIRKKLKAENI” as the sequence, how does the “soluble on expression in E. coli” value read?
Answer: soluble

Question: For “MICNCFLLIIVTLVISNCDGICLNHEGWGNVGSVFTDPLCNVWCEIKLCGPGQCIEDPMTTAPARCVCEKCYRDNSGNAVYPGGNNDYQQQAQMNRERQLDRQYNRQLRQQNRMNKAWQRGWQ”, which “soluble on expression in E. coli” value is on record?
Answer: not soluble

Question: With “MIDDDGYRPNVGIVICNRQGQVMWARRFGQHSWQFPQGGINPGESAEQAMYRELFEEVGLSRKDVRILASTRNWLRYKLPKRLVRWDTKPVCIGQKQKWFLLQLVSGDAEINMQTSSTPEFDGWRWVSYWYPVRQVVSFKRDVYRRVMKEFASVVMSLQENTPK” as the sequence, how does the “soluble on expression in E. coli” value read?
Answer: soluble

Question: With “MIDDIRYLIVFAKIAETGSVSGGAEALGLSAATASLHLSRLERNLGRALLYRNSRKLSLTQDGTQLLDTARSMLELYEKGFIEFRQRAVSTRNSLRISMPAVFVNGDFTRHLAAFIEEHPDLDLGIACDDSRHDIIGDGIDIAFRIGDLPDSSLKARHLFLLPRQVVAAPAFLARHAPLEHPRDLQRLEWIGLGMRPDSRLFRHARDDEEVRVDYTPRVRVDSVEASCRLARLGVGLAAPPTYLSDEPIRRGELRAVLPEWRLEPLKVYAVWPPNVPASSIAYTLINRLYEAFNPG” as the sequence, how does the “soluble on expression in E. coli” value read?
Answer: not soluble

Question: For “MIDHLSRAVISDPEQNLAIEQKESDHILPDSKMTPLRFRKRTLHETKIRTHSTLTENVLSHKLQFDGRIVSRTNVLPFIQKSIYSHQCGRRKGKQYRLGDFYVGATLTFLSSDHLSLPESIKENTLLKLRITNIDQIALDSLKTASMEQEDDIIIQETNDRLVFKAIQDVLKEKLHKRGVRILTGLGKYFQQLDKEGNGLLDKADFKQALKVFHLEVSEKDFESAWLILNDNGNGKVDYGEFKRGIIGEMNEYRKSYVRKAFMKLDFNKSGSVPIINIRKCYCAKKHSQVISG”, which “soluble on expression in E. coli” value is on record?
Answer: soluble

Question: For “MIDKIVFEEDEEYDLTQDSFRYGRVTTGASYNLVTGKIPETVLEQVKAKDDENDDVEFEMDHLEDKEAVQKTKTFDELYESQMPKYFEYQSNFSEVNGIWTLLFDQNHYENMSTFELQAAICAALNSKHYMMICVGIDAFNAVTGVEMSAKDRVVFRMALTRAVAGEFQPPLVKVAPKQLTGVSPMKRDISEVTSSIDVLFIPVIGVTDEVENNRFLIVVRVKEISDKVYQISSGRIYNELEGRVVEMSDMNEAFHKLIVEQSISDIQTRRGSMFMLEPEPFLEDSPVIFTGSKEILRENHEIPNILKENSTERSLSQSLLNLLDIQNIGWIFFGTALSCCIYNNAIKPLVK”, which “soluble on expression in E. coli” value is on record?
Answer: not soluble

Question: Which “soluble on expression in E. coli” value does the source give for “MIDQHQYIERESGSVCNERLFGDRLIRLLYHGARENAPFLFKMATSSWSSGLLGFINFDLPFGSNRRFLEECGVDLDECLDPPESLDTPRKVFERRIRYEQCRPMPEVQWAVVSPADARVLVGSFRDTSALFLKEKFFDFEELLGRHKEEWLRAFTGGEFAVFRLTPDKYHYNHTPVAGTVRDIYEIDGGYHSCNPGAVVIEATPFSKNRRVVTVIDTDVPGGTGVGLVAMIEVVALMIGQIVQCYSYEGYTAPRPVEPGMFLRRGVPKSLYRPGSSTDVLIFQRDRMHFADDIVRNMHDTRAASRFSHGFGRPLVETDVKVRSLIAVAVTNLEHHHHHH” here?
Answer: not soluble
